# T1: leukocidin GH (LukGH) wild-type (Staphylococcus aureus USA300 (ST8) …)
# T1 chain 1: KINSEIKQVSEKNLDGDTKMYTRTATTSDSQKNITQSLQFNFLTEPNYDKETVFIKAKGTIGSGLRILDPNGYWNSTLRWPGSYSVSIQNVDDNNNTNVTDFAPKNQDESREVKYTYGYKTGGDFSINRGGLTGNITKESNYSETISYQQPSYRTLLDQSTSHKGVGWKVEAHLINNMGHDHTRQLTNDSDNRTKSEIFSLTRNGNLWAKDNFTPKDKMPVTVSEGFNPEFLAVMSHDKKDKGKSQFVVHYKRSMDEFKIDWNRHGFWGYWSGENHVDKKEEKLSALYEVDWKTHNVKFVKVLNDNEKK
# T1 chain 2: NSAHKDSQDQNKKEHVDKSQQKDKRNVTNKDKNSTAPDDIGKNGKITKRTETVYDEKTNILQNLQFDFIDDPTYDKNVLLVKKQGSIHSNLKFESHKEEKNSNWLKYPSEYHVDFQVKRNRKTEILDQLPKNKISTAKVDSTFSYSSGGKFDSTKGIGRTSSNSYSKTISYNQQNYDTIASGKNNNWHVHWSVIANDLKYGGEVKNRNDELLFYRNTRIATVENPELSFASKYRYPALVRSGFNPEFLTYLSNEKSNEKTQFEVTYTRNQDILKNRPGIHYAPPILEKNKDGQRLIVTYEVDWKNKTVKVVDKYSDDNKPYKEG
# B1: Fab of αLukGH-mAb#5.H1H2 (Fab, V domains shown)
# VH: ELQLQESGPGLVKPSETLSLTCTVSGGSISSGSYYWDWIRQPPGKGLEWIGNIYKSGSTYYNPSLKSRVTISVDTSKNQFSLKLSSVTAADTAVYYCARERGMHYMDVWGKGTTVTVSS
# VL: DIQMTQSPSSLSASVGDRVTITCRASQSINSYLNWYQQKPGKAPKLLIYAASSLQSGVPSRFSGSGSGTDFTLTISSLQPEDFATYYCQQQFDPPFTFGGGTKVEIK
# Assays:
# [1] = target: mouse CD11b I-domain (moCD11b-I) (mouse) (UniProt P05555); experiment: BLI
# Chain of mouse CD11b I-domain (moCD11b-I) (mouse) (P05555 143-337): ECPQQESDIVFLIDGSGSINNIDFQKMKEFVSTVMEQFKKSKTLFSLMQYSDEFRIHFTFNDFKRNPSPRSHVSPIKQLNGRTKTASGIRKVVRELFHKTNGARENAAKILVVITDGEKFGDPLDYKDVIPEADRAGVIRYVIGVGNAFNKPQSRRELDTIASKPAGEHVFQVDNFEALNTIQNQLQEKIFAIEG
# [2] = target: human CD11b I-domain (huCD11b-I) (human); experiment: SAXS
# [3] = target: T1, leukocidin GH (LukGH) wild-type; experiment: SAXS
Molecule,Kd [1] [nM],stoichiometry N [2],binding result [3]
LukGH^K319A (complex),63,–,–
leukocidin GH (LukGH) wild-type (complex),1000,1,–
B1,–,–,binds

# Source: paper PMC6955338 (Proceedings of the National Academy of Sciences of the …, 2019)
